B1: LetB periplasmic portion (residues 43-877) (domain or fragment, E. coli, UniProt P76272 43-877, looked up)
chain: QDRGNTVTIDFMSADGIVPGRTPVRYQGVEVGTVQDISLSDDLRKIEVKVSIKSDMKDALREETQFWLVTPKASLAGVSGLDALVGGNYIGMMPGKGKEQDHFVALDTQPKYRLDNGDLMIHLQAPDLGSLNSGSLVYFRKIPVGKVYDYAINPNKQGVVIDVLIERRFTDLVKKGSRFWNVSGVDANVSISGAKVKLESLAALVNGAIAFDSPEESKPAEAEDTFGLYEDLAHSQRGVIIKLELPSGAGLTADSTPLMYQGLEVGQLTKLDLNPGGKVTGEMTVDPSVVTLLRENTRIELRNPKLSLSDANLSALLTGKTFELVPGDGEPRKEFVVVPGEKALLHEPDVLTLTLTAPESYGIDAGQPLILHGVQVGQVIDRKLTSKGVTFTVAIEPQHRELVKGDSKFVVNSRVDVKVGLDGVEFLGASASEWINGGIRILPGDKGEMKASYPLYANLEKALENSLSDLPTTTVSLSAETLPDVQAGSVVLYRKFEVGEVITVRPRANAFDIDLHIKPEYRNLLTSNSVFWAEGGAKVQLNGSGLTVQASPLSRALKGAISFDNLSGASASQRKGDKRILYASETAARAVGGQITLHAFDAGKLAVGMPIRYLGIDIGQIQTLDLITARNEVQAKAVLYPEYVQTFARGGTRFSVVTPQISAAGVEHLDTILQPYINVEPGRGNPRRDFELQEATITDSRYLDGLSIIVEAPEAGSLGIGTPVLFRGLEVGTVTGMTLGTLSDRVMIAMRISKRYQHLVRNNSVFWLASGYSLDFGLTGGVVKTGTFNQFIRGGIAFATPPGTPLAPKAQEGKHFLLQESEPKEWREWGTALPK
B2: LetB six-ring truncation mutant (ring 6 deleted), TM helix removed (domain or fragment)
chain: QDRGNTVTIDFMSADGIVPGRTPVRYQGVEVGTVQDISLSDDLRKIEVKVSIKSDMKDALREETQFWLVTPKASLAGVSGLDALVGGNYIGMMPGKGKEQDHFVALDTQPKYRLDNGDLMIHLQAPDLGSLNSGSLVYFRKIPVGKVYDYAINPNKQGVVIDVLIERRFTDLVKKGSRFWNVSGVDANVSISGAKVKLESLAALVNGAIAFDSPEESKPAEAEDTFGLYEDLAHSQRGVIIKLELPSGAGLTADSTPLMYQGLEVGQLTKLDLNPGGKVTGEMTVDPSVVTLLRENTRIELRNPKLSLSDANLSALLTGKTFELVPGDGEPRKEFVVVPGEKALLHEPDVLTLTLTAPESYGIDAGQPLILHGVQVGQVIDRKLTSKGVTFTVAIEPQHRELVKGDSKFVVNSRVDVKVGLDGVEFLGASASEWINGGIRILPGDKGEMKASYPLYANLEKALENSLSDLPTTTVSLSAETLPDVQAGSVVLYRKFEVGEVITVRPRANAFDIDLHIKPEYRNLLTSNSVFWAEGGAKVQLNGSGLTVQASPLSRALKGAISFDNLSGASASQRKGDKRILYASETAARAVTITDSRYLDGLSIIVEAPEAGSLGIGTPVLFRGLEVGTVTGMTLGTLSDRVMIAMRISKRYQHLVRNNSVFWLASGYSLDFGLTGGVVKTGTFNQFIRGGIAFATPPGTPLAPKAQEGKHFLLQESEPKEWREWGTALPK
B3: LetB five-ring truncation mutant (rings 5 and 6 deleted), TM helix removed (domain or fragment)
chain: QDRGNTVTIDFMSADGIVPGRTPVRYQGVEVGTVQDISLSDDLRKIEVKVSIKSDMKDALREETQFWLVTPKASLAGVSGLDALVGGNYIGMMPGKGKEQDHFVALDTQPKYRLDNGDLMIHLQAPDLGSLNSGSLVYFRKIPVGKVYDYAINPNKQGVVIDVLIERRFTDLVKKGSRFWNVSGVDANVSISGAKVKLESLAALVNGAIAFDSPEESKPAEAEDTFGLYEDLAHSQRGVIIKLELPSGAGLTADSTPLMYQGLEVGQLTKLDLNPGGKVTGEMTVDPSVVTLLRENTRIELRNPKLSLSDANLSALLTGKTFELVPGDGEPRKEFVVVPGEKALLHEPDVLTLTLTAPESYGIDAGQPLILHGVQVGQVIDRKLTSKGVTFTVAIEPQHRELVKGDSKFVVNSRVDVKVGLDGVEFLGASASEWINGGIRILPGDKGEMKASYPLYANLEKALENSLSDLPTTITDSRYLDGLSIIVEAPEAGSLGIGTPVLFRGLEVGTVTGMTLGTLSDRVMIAMRISKRYQHLVRNNSVFWLASGYSLDFGLTGGVVKTGTFNQFIRGGIAFATPPGTPLAPKAQEGKHFLLQESEPKEWREWGTALPK
B4: LetB four-ring truncation mutant (rings 2-4 deleted), TM helix removed (domain or fragment)
chain: QDRGNTVTIDFMSADGIVPGRTPVRYQGVEVGTVQDISLSDDLRKIEVKVSIKSDMKDALREETQFWLVTPKASLAGVSGLDALVGGNYIGMMPGKGKEQDHFVALDTQPKYRLDNGNLEKALENSLSDLPTTTVSLSAETLPDVQAGSVVLYRKFEVGEVITVRPRANAFDIDLHIKPEYRNLLTSNSVFWAEGGAKVQLNGSGLTVQASPLSRALKGAISFDNLSGASASQRKGDKRILYASETAARAVGGQITLHAFDAGKLAVGMPIRYLGIDIGQIQTLDLITARNEVQAKAVLYPEYVQTFARGGTRFSVVTPQISAAGVEHLDTILQPYINVEPGRGNPRRDFELQEATITDSRYLDGLSIIVEAPEAGSLGIGTPVLFRGLEVGTVTGMTLGTLSDRVMIAMRISKRYQHLVRNNSVFWLASGYSLDFGLTGGVVKTGTFNQFIRGGIAFATPPGTPLAPKAQEGKHFLLQESEPKEWREWGTALPK

Experiments:
cryo-EM structure = target: the molecule itself; assay: cryo-EM structure
negative stain EM = target: the molecule itself; assay: negative stain EM

| Protein | stoichiometry N (cryo-EM structure) | stoichiometry N (negative stain EM) |
| --- | --- | --- |
| B1 | 6 |  |
| B2 |  | 6 |
| B3 |  | 6 |
| B4 |  | 6 |
